Read-outs that look alike come from different tables or passages of the source.
B1: 2C1 recombinant IgG (human constant regions) (antibody, V domains shown)
VH: QVQLQQSGAELVRPGASVTLSCKASGYIFTDYEIHWLKQTPVHGLEWIGTSDPETGGFAYTQKFKGKAILTADKSSSTAYMELRSLTSEDSAVYYCTRRPYYGSGAWFAYWGQGTLVTVSA
VL: DIVMTQSHKFMSTSVGDRVSITCKANHDVNIAVAWYQQKPGQSPKLLIYSASYRYTGVPDRFTGSGSGTDFTFTISSVQAEDLAVYYCQQHYDTPRTFGGGTKLEIK
B2: 1D3 recombinant IgG (human constant regions) (antibody, V domains shown)
VH: QVQIQQSGAELMRPGASVKLSCKATGYTFTGYWIEWVKQRPGHGLEWIGEILSGRGTTNYNEKFKGKATFTADTYSNTAYMQLSSLTTGDSAIYYCARGGFLYGDGPFDYWGQGTTLTVSS
VL: DILLTQSPAILSVSPGERVSFSCRASQNIDTHIHWYQQRTNGSPRLLIKYASESISGIPSRFSGSGSGTDFTLTINSVESEDIADYYCQQSNSWPFTFGSGTKLEIK

Columns and labels:
ADI-19425 Fab [1] = target: T1, ADI-19425 Fab (human, UniProt P0DOY2 1-106); test: BLI
ADI-19425 Fab [2] = target: T1, ADI-19425 Fab; test: BLI; remark: listed apart in the source

| Binder | koff (ADI-19425 Fab [1]) [s⁻¹] | koff (ADI-19425 Fab [2]) [s⁻¹] |
| --- | --- | --- |
| B1 | 0.000442 | – |
| B2 | – | 0.000115 |
